The source of these data is patent publication US20190241669A1 (published 2019).

One test addresses Human BCMA (human) (UniProt Q02223). Briefly: SPR, IgG on chip, huBCMA analyte.
In a further test the target is T1, cynomolgus monkey BCMA (cynomolgus monkey, UniProt A0A2K5UD97 1-53).
T1 construct: Soluble analyte in SPR; construct not described; also called cyBCMA; Cyno BCMA
Briefly: SPR, IgG on chip, cyBCMA analyte.

T1 sequence (A0A2K5UD97 entry or part of it): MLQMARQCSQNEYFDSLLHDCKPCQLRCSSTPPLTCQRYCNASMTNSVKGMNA

B1: COMBO_Rd4_0.6nM_C21 (antibody, V domains shown)
VH: EVQLLESGGGLVQPGGSLRLSCAASGFTFSSYPMSWVRQAPGKGLEWVSAIGGSGGSLPYADSVKGRFTISRDNSKNTLYLQMNSLRAEDTAVYYCARYWPMDSWGQGTLVTVSS
VL: EIVLTQSPGTLSLSPGERATLSCRASQSVSSSYLAWYQQKPGQAPRLLMYDASIRATGIPDRFSGSGSGTDFTLTISRLEPEDFAVYYCQQYQSWPLTFGQGTKVEIK
notes: IgG
With B1, in the test with Human BCMA (human), the Kd was 9 pM, the koff was determined as 0.000115 s⁻¹ and the kon is 1.34e+07 M⁻¹ s⁻¹. Besides, in the test with cynomolgus monkey BCMA, binding was characterised by a dissociation constant (Kd) of 84 pM, the koff worked out at 0.000304 s⁻¹ and the kon amounted to 3.63e+06 M⁻¹ s⁻¹.

B2: A02_Rd4_0.6nM_C26 (antibody, V domains shown)
VH: EVQLLESGGGLVQPGGSLRLSCAASGFTFSSYAMNWVRQAPGKGLEWVSAILMSGGSTYYADSVKGRFTISRDNSKNTLYLQMNSLRAEDTAVYYCARYWPMSLWGQGTLVTVSS
VL: EIVLTQSPGTLSLSPGERATLSCGPSQSVSSSYLAWYQQKPGQAPRLLMYDASIRATGIPDRFSGSGSGTDFTLTISRLEPEDFAVYYCQQYQSWPLTFGQGTKVEIK
notes: IgG
In the test with Human BCMA (human), B2 had a Kd of 61 pM, a koff of 0.000443 s⁻¹ and a kon of 7.26e+06 M⁻¹ s⁻¹. In the test with cynomolgus monkey BCMA, the Kd came out at 941 pM, the koff amounted to 0.00256 s⁻¹ and the kon was 2.71e+06 M⁻¹ s⁻¹.

B3: A02_Rd4_0.6nM_C06 (antibody, V domains shown)
VH: EVQLLESGGGLVQPGGSLRLSCAASGFTFSSYAMNWVRQAPGKGLEWVSAISDSGGSAWYADSVKGRFTISRDNSKNTLYLQMNSLRAEDTAVYYCARYWPMSLWGQGTLVTVSS
VL: EIVLTQSPGTLSLSPGERATLSCRASQSVSVLYLAWYQQKPGQAPRLLMYDASIRATGIPDRFSGSGSGTDFTLTISRLEPEDFAVYYCQQYQRWPLTFGQGTKVEIK
notes: IgG
In the test with Human BCMA (human), B3 registered a Kd of 21 pM, a koff of 7.37e-05 s⁻¹ and a kon of 3.49e+06 M⁻¹ s⁻¹. In addition, in the test with cynomolgus monkey BCMA, the Kd came to 58 pM, the koff worked out at 0.000105 s⁻¹ and the kon worked out at 1.81e+06 M⁻¹ s⁻¹.

B4: A02_Rd4_6nM_C05 (antibody, V domains shown)
VH: EVQLLESGGGLVQPGGSLRLSCAASGFTFSSYAMNWVRQAPGKGLEWVSAIFASGGSTYYADSVKGRFTISRDNSKNTLYLQMNSLRAEDTAVYYCARYWPMTPWGQGTLVTVSS
VL: EIVLTQSPGTLSLSPGERATLSCRASQSVSSSYLAWYQQKPGQAPRLLMYDASIRATGIPDRFSGSGSGTDFTLTISRLEPEDFAVYYCQQYQRWPLTFGQGTKVEIK
notes: IgG
In the test with Human BCMA (human), B4 registered a Kd of 99 pM, a koff of 0.000308 s⁻¹ and a kon of 3.1e+06 M⁻¹ s⁻¹. Moreover, in the test with cynomolgus monkey BCMA, the Kd was 950 pM, the koff was found to be 0.00129 s⁻¹ and the kon came out at 1.36e+06 M⁻¹ s⁻¹.

B5: A02_Rd4_6nM_C03 (antibody, V domains shown)
VH: EVQLLESGGGLVQPGGSLRLSCAASGFTFSSYAMNWVRQAPGKGLEWVSAISDSGGSTYYADSVKGRFTISRDNSKNTLYLQMNSLRAEDTAVYYCARYWPMDIWGQGTLVTVSS
VL: EIVLTQSPGTLSLSPGERATLSCRASQSVSNLYLAWYQQKPGQAPRLLMYDASIRATGIPDRFSGSGSGTDFTLTISRLEPEDFAVYYCQQYQGWPLTFGQGTKVEIK
notes: IgG
Take B5: in the test with Human BCMA (human), the Kd came to 75 pM, the koff came to 0.000126 s⁻¹ and the kon is 1.69e+06 M⁻¹ s⁻¹. Also, in the test with cynomolgus monkey BCMA, binding was put at a Kd of 158 pM, the koff was 0.000185 s⁻¹ and the kon stood at 1.17e+06 M⁻¹ s⁻¹.

B6: A02_Rd4_0.6nM_C10 (antibody, V domains shown)
VH: EVQLLESGGGLVQPGGSLRLSCAASGFTFSSYAMNWVRQAPGKGLEWVSAISGWGGSLPYADSVKGRFTISRDNSKNTLYLQMNSLRAEDTAVYYCARYWPMDSWGQGTLVTVSS
VL: EIVLTQSPGTLSLSPGERATLSCRASQSVSAQYLAWYQQKPGQAPRLLMYDASIRATGIPDRFSGSGSGTDFTLTISRLEPEDFAVYYCQQYQRWPLTFGQGTKVEIK
notes: IgG
For B6, in the test with Human BCMA (human), the Kd is 129 pM, the koff turned out to be 0.000296 s⁻¹ and the kon stood at 2.3e+06 M⁻¹ s⁻¹. In the test with cynomolgus monkey BCMA, this molecule had a Kd of 1840 pM, a koff of 0.00163 s⁻¹ and a kon of 883000 M⁻¹ s⁻¹.

B7: A02_Rd4_0.6nM_C13 (antibody, V domains shown)
VH: EVQLLESGGGLVQPGGSLRLSCAASGFTFSSYAMNWVRQAPGKGLEWVSAISDSGGYRYYADSVKGRFTISRDNSKNTLYLQMNSLRAEDTAVYYCARYWPMSLWGQGTLVTVSS
VL: EIVLTQSPGTLSLSPGERATLSCRASQSVSSSYWAWYQQKPGQAPRLLMYDASIRATGIPDRFSGSGSGTDFTLTISRLEPEDFAVYYCQQYESWPLTFGQGTKVEIK
notes: IgG
Consider B7, for which, in the test with Human BCMA (human), the Kd was 66 pM, the koff is 0.000566 s⁻¹ and the kon was determined as 8.53e+06 M⁻¹ s⁻¹. In the test with cynomolgus monkey BCMA, this molecule displayed a Kd of 560 pM, a koff of 0.00128 s⁻¹ and a kon of 2.29e+06 M⁻¹ s⁻¹.

B8: A02_Rd4_0.6nM_C03 (antibody, V domains shown)
VH: EVQLLESGGGLVQPGGSLRLSCAASGFTFSSYAMNWVRQAPGKGLEWVSAISDSGGSKWYADSVKGRFTISRDNSKNTLYLQMNSLRAEDTAVYYCARYWPMSLWGQGTLVTVSS
VL: EIVLTQSPGTLSLSPGERATLSCRASQSVSSSYLAWYQQKPGQAPRLLMYDASIRATGIPDRFSGSGSGTDFTLTISRLEPEDFAVYYCQQYFTWPLTFGQGTKVEIK
notes: IgG
In the test with Human BCMA (human), B8 had a Kd of 43 pM, a koff of 0.000182 s⁻¹ and a kon of 4.27e+06 M⁻¹ s⁻¹. In the test with cynomolgus monkey BCMA, the Kd was determined as 201 pM, the off-rate constant (koff) is 0.000426 s⁻¹ and the kon is 2.12e+06 M⁻¹ s⁻¹.

B9: A02_Rd4_0.6nM_C01 (antibody, V domains shown)
VH: EVQLLESGGGLVQPGGSLRLSCAASGFTFSSYAMNWVRQAPGKGLEWVSAILSSGGSTYYADSVKGRFTISRDNSKNTLYLQMNSLRAEDTAVYYCARYWPMDIWGQGTLVTVSS
VL: EIVLTQSPGTLSLSPGERATLSCRGGQSVSSSYLAWYQQKPGQAPRLLMYDASIRATGIPDRFSGSGSGTDFTLTISRLEPEDFAVYYCQQYQSWPLTFGQGTKVEIK
notes: IgG; also called P5AC1
In the test with Human BCMA (human), B9 displayed a Kd of 193 pM, a koff of 0.000915 s⁻¹ and an association rate constant (kon) of 4.74e+06 M⁻¹ s⁻¹. In addition, in the test with cynomolgus monkey BCMA, binding was put at a Kd of 655 pM, the koff came to 0.00157 s⁻¹ and the kon worked out at 2.39e+06 M⁻¹ s⁻¹.

B10: A02_Rd4_6nM_C04 (antibody, V domains shown)
VH: EVQLLESGGGLVQPGGSLRLSCAASGFTFSSYAMNWVRQAPGKGLEWVSAIMSSGGPLYYADSVKGRFTISRDNSKNTLYLQMNSLRAEDTAVYYCARYWPMALWGQGTLVTVSS
VL: EIVLTQSPGTLSLSPGERATLSCRASQSVSALYLAWYQQKPGQAPRLLMYDASIRATGIPDRFSGSGSGTDFTLTISRLEPEDFAVYYCQQYQVWPLTFGQGTKVEIK
notes: IgG
In the test with Human BCMA (human), B10 displayed a Kd of 135 pM, a koff of 0.000603 s⁻¹ and a kon of 4.47e+06 M⁻¹ s⁻¹. Besides, in the test with cynomolgus monkey BCMA, binding was characterised by a dissociation constant (Kd) of 381 pM, the koff came out at 0.000831 s⁻¹ and the kon was found to be 2.18e+06 M⁻¹ s⁻¹.

B11: A02_Rd4_0.6nM_C09 (antibody, V domains shown)
VH: EVQLLESGGGLVQPGGSLRLSCAASGFTFSSYAMNWVRQAPGKGLEWVSAISDSGGSMWYADSVKGRFTISRDNSKNTLYLQMNSLRAEDTAVYYCARYWPMSLWGQGTLVTVSS
VL: EIVLTQSPGTLSLSPGERATLSCRASQSVSSSYLAWYQQKPGQAPRLLMYDASIRATGIPDRFSGSGSGTDFTLTISRLEPEDFAVYYCQQYQSWPLTFGQGTKVEIK
notes: IgG
In the test with Human BCMA (human), B11 yielded a Kd of 18 pM, a koff of 9.75e-05 s⁻¹ and a kon of 5.5e+06 M⁻¹ s⁻¹. In the test with cynomolgus monkey BCMA, this molecule showed a Kd of 82 pM, an off-rate constant (koff) of 0.000174 s⁻¹ and a kon of 2.13e+06 M⁻¹ s⁻¹.
